For one data set, the target named is T1, human SEP (Homo sapiens, UniProt Q495T6).
T1 construct: The full length human SEP clone was termed MSSE82; made in house; host or cells: CHO cells transfected with plasmid MSSE82; dialysed culture medium used as enzyme
T1 sequence (Q495T6 75-779 limits assumed): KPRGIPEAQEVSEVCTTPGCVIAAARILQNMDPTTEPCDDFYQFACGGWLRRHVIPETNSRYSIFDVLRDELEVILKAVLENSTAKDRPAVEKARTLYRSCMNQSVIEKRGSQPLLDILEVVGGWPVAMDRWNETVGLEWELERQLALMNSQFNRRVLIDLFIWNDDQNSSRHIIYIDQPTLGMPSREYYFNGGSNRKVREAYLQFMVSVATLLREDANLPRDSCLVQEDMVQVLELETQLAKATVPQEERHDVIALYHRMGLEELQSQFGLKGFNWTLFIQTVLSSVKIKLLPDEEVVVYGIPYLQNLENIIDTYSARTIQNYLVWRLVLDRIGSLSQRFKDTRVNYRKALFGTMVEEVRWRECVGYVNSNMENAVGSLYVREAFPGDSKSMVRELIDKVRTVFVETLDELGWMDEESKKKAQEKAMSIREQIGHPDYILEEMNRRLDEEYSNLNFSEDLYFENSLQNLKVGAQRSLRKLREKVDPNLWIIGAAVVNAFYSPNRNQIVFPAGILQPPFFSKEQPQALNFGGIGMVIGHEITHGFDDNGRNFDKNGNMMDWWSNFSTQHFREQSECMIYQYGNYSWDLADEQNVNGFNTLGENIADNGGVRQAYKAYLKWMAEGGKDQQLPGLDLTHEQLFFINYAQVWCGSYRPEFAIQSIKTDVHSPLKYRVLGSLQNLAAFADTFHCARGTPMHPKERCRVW
The experiment in a line: human SEP activity, sensitivity to inhibitors. It is filed as biochemical. As to the method:
The enzymatic (proteolytic) activity of human SEP protein can be measured in an assay involving, for example, mixing a sample of the human SEP enzyme with a substrate peptide in a buffer solution (for example 50 mM HEPES; pH 7.4), incubating the mixture for a period of time (such as 1-3 hours) enough for human SEP to act to cleave a measurable portion of the peptide substrate to a product at a temperature suitable for SEP activity (typically 30-37° C.).
The effect of candidate human SEP inhibitor compounds or control test compounds such as phosphoramidon and thiorphan that may alter the activity of human SEP can be measured in this type of assay by including them in the initial mixture at a range of suitable test concentrations, typically 0.1 nM to 50 μM.
To determine the IC50 of SEP inhibitors (SEPi; for example, phosphoramidon), multiple SEP assays are performed as described above with a range of test concentrations of inhibitor included in the 50 μl of DMSO solution (made by appropriate dilution of a 10 mM 100% DMSO stock of inhibitor with 4% DMSO/50 mM HEPES pH7.4.). Using a suitable standard graph fitting computer program, a sigmoidal dose response curve is fitted to a plot of log inhibitor concentration versus MaxV (or % inhibition or % activity). The IC50 is calculated as the inhibitor concentration causing 50% maximal inhibition. […]

A further data set has as its target T2, mouse SEP (Mus musculus, UniProt Q9JLI3).
T2 sequence (Q9JLI3 1-765): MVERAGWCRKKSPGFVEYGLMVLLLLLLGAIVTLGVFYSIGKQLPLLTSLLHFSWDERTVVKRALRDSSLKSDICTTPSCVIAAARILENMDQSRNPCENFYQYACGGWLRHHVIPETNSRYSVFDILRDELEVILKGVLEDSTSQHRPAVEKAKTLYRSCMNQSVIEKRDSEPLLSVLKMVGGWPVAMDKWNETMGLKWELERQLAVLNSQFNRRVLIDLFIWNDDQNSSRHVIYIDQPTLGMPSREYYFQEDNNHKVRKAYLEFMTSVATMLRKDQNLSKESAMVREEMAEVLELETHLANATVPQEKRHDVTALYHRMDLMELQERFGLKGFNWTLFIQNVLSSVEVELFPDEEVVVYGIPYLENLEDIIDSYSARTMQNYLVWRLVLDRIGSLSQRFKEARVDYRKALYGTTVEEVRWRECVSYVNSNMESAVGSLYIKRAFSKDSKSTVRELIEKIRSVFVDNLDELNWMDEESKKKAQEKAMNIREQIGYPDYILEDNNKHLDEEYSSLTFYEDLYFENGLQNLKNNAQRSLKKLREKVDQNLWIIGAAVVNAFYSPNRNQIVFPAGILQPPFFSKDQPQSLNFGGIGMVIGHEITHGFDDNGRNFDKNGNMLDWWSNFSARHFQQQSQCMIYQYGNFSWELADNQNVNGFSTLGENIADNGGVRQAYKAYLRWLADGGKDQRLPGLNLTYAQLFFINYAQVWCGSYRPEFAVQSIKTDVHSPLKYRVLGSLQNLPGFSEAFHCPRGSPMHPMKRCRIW
The note with it: cited from earlier work.

Data set [1] concerns the target T3, Recombinant human NEP enzyme (Homo sapiens, UniProt P08473).
T3 construct: made in house; host or cells: Pichia pastoris
Briefly: NEP FRET assay (384 well, homogeneous). It is filed as biochemical. The note with it: steady state kinetics of NEP enzyme with the peptide substrate. As to the method:
All assays were conducted in 384 well black, flat bottom plates, purchased from Matrix Technologies Ltd. (Cheshire, UK).
Compounds for screening were supplied as singles at 40 μM in 1% DMSO to achieve a final screening concentration of 10 μM.
The peptide substrate (Rhodamine green-Gly-Gly-dPhe-Leu-Arg-Arg-Val-Cys(QSY™7)-βAla-NH2) (SEQ ID NO: 8) was made as described above and labelled with fluorophores purchased from Molecular Probes, Inc. All other reagents were purchased from Sigma/Aldrich (Poole, Dorset, UK).
Recombinant human NEP enzyme was expressed using Pichia pastoris and purified to homogeneity using a three-step purification procedure.
All assays were performed in 50 mM Hepes buffer pH 8, 0.1% v/v pluronic-F127 and 1% v/v protease inhibitor cocktail (antipain, aprotinin, leupeptin, pepstatin A). 10 μl of compound in 1% DMSO was added to each well, followed by 20 μl of recombinant enzyme (10 nM final concentration). The reaction was initiated by the addition of 10 μl of substrate (1 μM final concentration) and plates were incubated at 25° C. for one hour. Termination of the reaction was achieved by the addition of 20 μl of Stop (excess of a known inhibitor) to a concentration of 10 μM in the well. Plates were counted using Tecan Ultra (485 nm excitation, 535 nm emission; Tecan Austria, Salzburg, Austria). […]

Data set [2] has as its target T4, Rhodamine green-Gly-Gly-dPhe-Leu-Arg-Arg-Val-Cys(QSY7)-betaAla-NH2.
T4 chain: GGFLRRVCA

Consider five molecules from patent US20040014131A1, “Assay methods” (Pfizer Inc., priority 2002, published 2004).

[ ]: non-standard residue; d: D form. QSY7 = QSY-7 (maleimide) on Cys; βAla = NCCC(=O)O

The Km is the concentration of substrate that gives half-maximal velocity.

T3 sequence (P08473 whole entry): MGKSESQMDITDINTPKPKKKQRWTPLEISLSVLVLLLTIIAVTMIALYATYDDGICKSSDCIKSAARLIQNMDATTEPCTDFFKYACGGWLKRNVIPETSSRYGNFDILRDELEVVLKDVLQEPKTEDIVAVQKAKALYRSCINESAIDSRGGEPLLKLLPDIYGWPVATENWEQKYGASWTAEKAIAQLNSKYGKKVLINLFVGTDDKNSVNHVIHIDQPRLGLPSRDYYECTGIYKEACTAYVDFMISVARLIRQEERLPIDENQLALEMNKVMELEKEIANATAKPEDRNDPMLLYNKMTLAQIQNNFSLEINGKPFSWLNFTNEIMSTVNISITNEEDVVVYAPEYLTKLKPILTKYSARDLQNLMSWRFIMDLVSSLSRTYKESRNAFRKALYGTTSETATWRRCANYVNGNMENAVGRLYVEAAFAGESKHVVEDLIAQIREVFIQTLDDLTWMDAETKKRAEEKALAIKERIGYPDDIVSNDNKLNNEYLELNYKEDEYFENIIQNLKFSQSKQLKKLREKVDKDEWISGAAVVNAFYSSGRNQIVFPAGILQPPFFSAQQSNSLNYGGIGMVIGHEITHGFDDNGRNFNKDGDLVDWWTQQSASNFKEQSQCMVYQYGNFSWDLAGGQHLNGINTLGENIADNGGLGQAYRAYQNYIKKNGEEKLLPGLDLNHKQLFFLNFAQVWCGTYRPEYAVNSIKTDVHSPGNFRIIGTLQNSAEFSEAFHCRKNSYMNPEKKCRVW

As to `O=C(O)CNC(=O)C(CS)Cc1ccccc1` (centres unmarked) [thiorphan], the “sensitivity of human SEP to inhibitor” value at human SEP was “sensitive”. Further, at mouse SEP, the “sensitivity of mouse SEP to inhibitor” value was “sensitive”.
For `CC(C)C[C@H](NP(=O)(O)O[C@@H]1O[C@@H](C)[C@H](O)[C@@H](O)[C@H]1O)C(=O)N[C@@H](Cc1c[nH]c2ccccc12)C(=O)O` [phosphoramidon], the “sensitivity of human SEP to inhibitor” value on human SEP was “sensitive”. Moreover, the “sensitivity of mouse SEP to inhibitor” value on mouse SEP was “sensitive”.
For the molecule “Rhodamine green-Gly-Gly-dPhe-Leu-Arg-Arg-Val-Cys(QSY™7)-βAla-NH2 ({Rhodamine green}-GG[dF]LRRVC(QSY7)[βAla]-NH2) [CP4]”, in data set [1], the Kcat was found to be 0.083 s⁻¹. Also, the Michaelis constant (Km) in data set [1] (50 mM Hepes pH 8, 25° C.) was 8 µM.

B1: Recombinant human NEP enzyme (neutral endopeptidase, neprilysin, EC 3.4.24.11) (protein)
chain: DDGICKSSDCIKSAARLIQNMDATTEPCTDFFKYACGGWLKRNVIPETSSRYGNFDILRDELEVVLKDVLQEPKTEDIVAVQKAKALYRSCINESAIDSRGGEPLLKLLPDIYGWPVATENWEQKYGASWTAEKAIAQLNSKYGKKVLINLFVGTDDKNSVNHVIHIDQPRLGLPSRDYYECTGIYKEACTAYVDFMISVARLIRQEERLPIDENQLALEMNKVMELEKEIANATAKPEDRNDPMLLYNKMTLAQIQNNFSLEINGKPFSWLNFTNEIMSTVNISITNEEDVVVYAPEYLTKLKPILTKYSARDLQNLMSWRFIMDLVSSLSRTYKESRNAFRKALYGTTSETATWRRCANYVNGNMENAVGRLYVEAAFAGESKHVVEDLIAQIREVFIQTLDDLTWMDAETKKRAEEKALAIKERIGYPDDIVSNDNKLNNEYLELNYKEDEYFENIIQNLKFSQSKQLKKLREKVDKDEWISGAAVVNAFYSSGRNQIVFPAGILQPPFFSAQQSNSLNYGGIGMVIGHEITHGFDDNGRNFNKDGDLVDWWTQQSASNFKEQSQCMVYQYGNFSWDLAGGQHLNGINTLGENIADNGGLGQAYRAYQNYIKKNGEEKLLPGLDLNHKQLFFLNFAQVWCGTYRPEYAVNSIKTDVHSPGNFRIIGTLQNSAEFSEAFHCRKNSYMNPEKKCRVW
With B1, in data set [2], the Kcat amounted to 0.083 s⁻¹; the Kcat/Km is given as 10,500 M^-1 S^-1; the Km turned out to be 8 µM; the “cleavage of the FRET substrate, monitored by fluorescence” value is listed as “CP4 is cleaved by endopeptidases NEP or SEP, creating the cleavage product Rhodamine green-Gly-Gly-dPhe-Leu-Arg-Arg-OH”.

B2: human soluble secreted endopeptidase (human SEP), recombinant (protein)
chain: RKPRGIPEAQEVSEVCTTPGCVIAAARILQNMDPTTEPCDDFYQFACGGWLRRHVIPETNSRYSIFDVLRDELEVILKAVLENSTAKDRPAVEKARTLYRSCMNQSVIEKRGSQPLLDILEVVGGWPVAMDRWNETVGLEWELERQLALMNSQFNRRVLIDLFIWNDDQNSSRHIIYIDQPTLGMPSREYYFNGGSNRKVREAYLQFMVSVATLLREDANLPRDSCLVQEDMVQVLELETQLAKATVPQEERHDVIALYHRMGLEELQSQFGLKGFNWTLFIQTVLSSVKIKLLPDEEVVVYGIPYLQNLENIIDTYSARTIQNYLVWRLVLDRIGSLSQRFKDTRVNYRKALFGTMVEEVRWRECVGYVNSNMENAVGSLYVREAFPGDSKSMVRELIDKVRTVFVETLDELGWMDEESKKKAQEKAMSIREQIGHPDYILEEMNRRLDEEYSNLNFSEDLYFENSLQNLKVGAQRSLRKLREKVDPNLWIIGAAVVNAFYSPNRNQIVFPAGILQPPFFSKEQPQALNFGGIGMVIGHEITHGFDDNGRNFDKNGNMMDWWSNFSTQHFREQSECMIYQYGNYSWDLADEQNVNGFNTLGENIADNGGVRQAYKAYLKWMAEGGKDQQLPGLDLTHEQLFFINYAQVWCGSYRPEFAIQSIKTDVHSPLKYRVLGSLQNLAAFADTFHCARGTPMHPKERCRVW
Regarding B2, the “cleavage of the FRET substrate, monitored by fluorescence” value in data set [2] is reported as “CP4 is cleaved by endopeptidases NEP or SEP, creating the cleavage product Rhodamine green-Gly-Gly-dPhe-Leu-Arg-Arg-OH”.
